Legend:
[1] = biological target: Toll-like receptor 4 (TLR-4) of Caco-2 cells (human (endogenous in Caco-2)) (UniProt O00206)
[2] = biological target: Toll-like receptor 4 (TLR-4) of Caco-2 cells (human (endogenous in Caco-2)) (UniProt O00206); remark: listed apart in the source

Chain of UniProt O00206 (O00206 24-839): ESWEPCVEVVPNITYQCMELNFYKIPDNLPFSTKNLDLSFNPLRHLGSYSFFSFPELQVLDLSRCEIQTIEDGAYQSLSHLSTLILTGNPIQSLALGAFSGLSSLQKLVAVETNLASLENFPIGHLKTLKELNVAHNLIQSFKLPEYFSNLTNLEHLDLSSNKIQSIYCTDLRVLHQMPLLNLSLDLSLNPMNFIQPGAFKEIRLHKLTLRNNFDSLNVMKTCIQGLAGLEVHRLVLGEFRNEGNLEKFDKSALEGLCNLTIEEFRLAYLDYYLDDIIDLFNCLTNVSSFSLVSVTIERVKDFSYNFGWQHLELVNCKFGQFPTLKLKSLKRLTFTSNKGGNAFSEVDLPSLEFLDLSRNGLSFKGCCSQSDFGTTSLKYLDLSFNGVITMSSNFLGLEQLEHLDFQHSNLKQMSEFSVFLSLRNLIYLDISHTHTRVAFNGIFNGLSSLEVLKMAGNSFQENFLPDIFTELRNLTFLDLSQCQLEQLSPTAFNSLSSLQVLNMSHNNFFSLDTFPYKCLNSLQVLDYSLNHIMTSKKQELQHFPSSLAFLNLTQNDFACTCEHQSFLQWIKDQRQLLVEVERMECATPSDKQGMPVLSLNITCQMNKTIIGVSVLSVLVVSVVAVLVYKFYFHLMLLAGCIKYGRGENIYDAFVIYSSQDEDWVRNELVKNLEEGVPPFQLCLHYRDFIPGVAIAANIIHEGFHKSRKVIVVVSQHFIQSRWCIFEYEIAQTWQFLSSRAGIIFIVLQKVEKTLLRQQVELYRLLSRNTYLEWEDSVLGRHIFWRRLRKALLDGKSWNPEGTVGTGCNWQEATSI

In the case of “recombinant Trichinella spiralis galectin with GST tag (GST-rTsgal) (natural protein)”, the NF-κB p65 transcription level (qPCR) in Caco-2 cells treated with rTsgal for 48 h, increase against the PBS group [1] is reported as 60.2%, the TLR-4 protein expression level (Western blot) in Caco-2 cells incubated with rTsgal (50 µg/mL) for 48 h, increase against the PBS group [2] is reported as 47.7% and the TLR-4 transcription level (qPCR) in Caco-2 cells incubated with rTsgal (50 µg/mL) for 48 h, increase against the PBS group [2] is reported as 18.4%.

Reference: publication PMC10680189
